The test system of series [1] is intracranial GBM-6 tumor. The series can be described thus: Intracranial GBM-6 tumor uptake analysis in nude mice. The format is in vivo, mouse. The conditions noted are these: i.v. tail vein, 100 μL of 500 μM. On the procedure: For intracranial tumor implantation, animals were injected with 100,000 GBM-6 cells in the right frontal lobe of the mouse brain. Briefly, nude mice (6-8 weeks) were anaesthetized by i.p. injection with ketamine/xylazine/acepromazine mixed in 0.9% NaCl saline solution. Then, the mice heads were mounted onto a stereotactic frame, and sterilized by swabbing with iodine solution. An 8-10 mm sagittal incision was made with a scalpel, and the bregma of the skull was identified. A Hamilton syringe containing GBM-6 cells (in PBS; 3 μL volume) was inserted into the coronal suture of the skull at the following coordinates from the bregma: 2 mm right and 0.5 mm forward. The tip of the needle was lowered/implanted into the brain (3.5 mm distance). GBM-6 cells were injected slowly (0.1 μL per 10 seconds). After that, the needle was retracted, and the skin around the incision was sutured back together. Mice were allowed to recover after surgery (meloxicam were given as analgesia post-surgery). […] After 8 hrs, mice were sacrificed and their brains excised, cryosectioned, stained with Hoechst dye and imaged by fluorescence microscopy. […] The mean Cy5.5 fluorescence intensity of the tumor was performed on ImageJ and compared with the mean fluorescence intensity on the non-tumor area on the contralateral (left) side of the brain.

In series [2] the test system is GBM-6 cells. The series can be described thus: Flow cytometry cell uptake in GBM-6 cells. The format is cell-based, human. On the procedure: (§1) Cells were washed once with PBS and then, treated with 1 mL of 2.5 mM EDTA to dissociate the cells. The EDTA was removed by centrifugation, and PBS supplemented with 10% FBS was added to create a single-cell suspension. All peptide stocks were dissolved in DMSO, and stored at −20° C. in the dark. Cells were incubated with each peptide (at the desired final concentration, between 1-10 μM) for 3 hrs at 37° C. in the dark under constant rotation. After incubation, cells were washed 3× with PBS with 10% FBS (by centrifugation at 7000 rpm for 3 mins each). Then, cells were resuspended in 3.7% formaldehyde for fixation, and finally washed once with PBS. Cells were evaluated for peptide uptake (mean fluorescence intensity) by flow cytometry (10,000-20,000 events).
A general note: A flow cytometer gives signals particle by particle.

The nature of series [3]: In vivo analysis of BBB permeability in non-tumor bearing mice. The conditions noted are these: i.v., 100 μL of 100 μM, 4 hrs. Also noted: species or system mouse. On the procedure:
To measure BBB penetration, naïve nude mice were injected intravenously via the tail vein with either Cy5.5-labeled BTP-7 or a scramble (Cy5.5-Scr-7) peptide (100 μL of 100 μM peptide solution). 4 hrs later, mice were injected with 100 μL of 50 mg/mL TRITC-dextran (155 kDa) via the tail vein. Mice were euthanized after 30 mins, and their brains excised, frozen and cryo-sectioned into 16 μm slices. Tissue sections from the frontal lobe were imaged by confocal microscopy using a 20× objective. Areas with high TRITC (red in original) signal indicate regions of high perfusion (i.e. blood vessels). Cy5.5 (peptide) intensity was measured in areas outside of visible TRITC signal to ensure that only peptide intensity in the brain parenchyma (peptide that has successfully extravasated from the vessels and accumulated in the brain tissues) was quantified.

Series [4] deals with HEK-Bcan cells. The series can be described thus: Flow cytometry cell uptake, HEK-Bcan versus regular HEK cells. The class given is cell-based, human. Particulars: Cy5.5-conjugated peptides, 5 μM. The protocol:
as §1

For series [5] the following is noted: healthy mice, 4 hours post-intravenous administration, IVIS. On the procedure:
The lyophilized BTP-7-Cy5.5 powders were dissolved to a final concentration of 10 mM in DMSO by mass. The peptide was then diluted to a concentration of 100 μM in a solution of 50:50 polyethylene glycol (PEG)-300:0.9% sodium chloride (v/v) irrigation solution. A 100 μL dose of each peptide solution was administered intravenously via the tail vein into healthy 8-week old female nude mice. After 4 hours, 100 μL of 50 mg/mL tetramethylrhodamine isothiocyanate-labeled dextran (155 kDa) in 0.9% sodium chloride was injected via the tail vein. Mice were sacrificed 30 min later by cervical dislocation. The brain, heart, lungs, kidneys, spleen, and liver were excised from each mouse, frozen on dry ice and imaged using an In Vivo Imaging System (Perkin Elmer) at an excitation of 640 nm. Using Living Image software, regions of interest were drawn around each organ and the total radiant efficiency of Cy5.5 from each organ was quantified.

Series [6] in a line: Solubility in aqueous solutions.
The subject of series [7] is HEK-Bcan cells. Put plainly: Flow cytometry blocking study with 50× molar excess of unlabeled peptide. The class given is cell-based, human. Particulars: fluorescein-conjugated peptide 1 μM. On the procedure: as §1
For blocking studies, cells were dissociated as described above and resuspended in cold PBS with 10% FBS. Cells were then incubated with a 50× molar excess of unlabeled peptide for 10 mins on ice, before adding the corresponding FITC-labeled peptide at a final concentration of 1 μM and incubated for 1.5 hrs on ice. Cells were then washed with cold PBS with 10% FBS, fixed and analyzed by flow cytometry.

Series [8] relates to BT188 glioma stem cells. The series can be described thus: Peptide uptake in BT188 (BΔg-high) versus BT145 (BΔg-low) glioma stem cells, fluorescence imaging. Particulars: fluorescein-labeled peptides, 5 μM. The class given is cell-based, human. From the text:
FIGS. 3A-I. Peptide characterization for BΔg specificity in glioma stem cells. (a) Table summary listing the properties of 7 peptides (composed of 8 D-amino acid residues, SEQ ID NOs:3-9, in order of appearance) that were isolated from the OBOC library screen. MW=molecular weight; KD=Kyte-Doolittle scale for amino acid hydropathy (positive scores indicate […]) (Kyte and Doolittle, J. Mol. Biol. 157, 105-132 (1982)). (b) Chemical structure showing the linkage between the peptide and FITC. (c) Western blot analysis showing the level of BΔg and Bcan in human embryo kidney (HEK) cells, and Bcan-overexpressing HEK cells (HEK-Bcan). […] Each group was normalized to a no-blocking (vehicle) control. Statistics were performed using multiple t-tests, and significance was measured in comparison to each vehicle control (p<0.0001). (e) Uptake of fluorescein-labeled BTP-2, 7, 8, 9, and 10 (at 5 μM conc.) in BT188 (BΔg-high) or BT145 (BΔg-low) glioma stem cells (GSCs). Western blot analysis on the top right confirms the BΔg expression level. […] Statistics were performed using the two-way ANOVA and Tukey's Multiple Comparison test. (f) Chemical structure showing the linkage between the peptide and Cy5.5 dye. (g) Western blot analysis showing the expression of BΔg in GBM-6 cells, with negligible BΔg level in astrocytes or neural progenitor cells (NPC). (h) Graph showing the cell uptake ranking of the top 3 peptide candidates, BTP-7, 8 and 9 in GBM-6 cells as determined by flow cytometry analysis with s.d. error bars (5 μM conc.; nevents=20,000 cells; nexperiment=5). Each group is normalized to the control scramble peptide (Scr-8). Statistics were performed using the one-way ANOVA and Tukey's Multiple Comparison test (significance were measured in comparison to the Scr-8 control). (i) Bar graph showing the uptake of BTP-7, 8 and 9 in GBM-6 cells and NPC with 95% confidence interval error bars (1 μM conc.; nevents=20,000 cells). Statistics were performed using the two-way ANOVA and Sidak's Multiple Comparison test.

Where no end group is shown, it is not given here. [ ]: non-standard residue; d: D form.

Turning to `CC(C)[C@@H](NC(=O)[C@@H](Cc1c[nH]cn1)NC(=O)CNC(=O)[C@@H](Cc1c[nH]c2ccccc12)NC(=O)[C@@H](CCCCN)NC(=O)[C@H](N)[C@H](C)O)C(=O)N[C@H](CC(N)=O)C(=O)N[C@H](CCCCN)C(=O)NCCCCCC(=O)N[C@@H](Cc1cn(CCCNC(=O)CCCCC[N+]2=C(/C=C/C=C/C=C3/N(C)c4ccc5ccccc5c4C3(C)C)C(C)(C)c3c2ccc2ccccc32)nn1)C(N)=O` [BTP-7-Cy5.5], the “tumor uptake compared to the control Cy5.5 dye (without peptide)” value in series [1] (brain cryo-sections, mean Cy5.5 intensity in tumor) was “more than 10 times”. Moreover, in series [1] (tumor-to-non-tumor ratio), the “fluorescence intensity of tumor compared to the contralateral area” value came to 4 times. In addition, the “uptake in GBM-6 GSCs compared with astrocytes” value in series [2] (Cy5.5-conjugated peptides) is listed as “significantly higher”. In addition, in series [2] (Cy5.5-conjugated peptides, 5 μM, inhibition of endocytosis), the “uptake in GBM-6 cells at 4° C. compared to 37° C.” value is “significantly reduced”. For the same molecule, in series [2] (Cy5.5-labeled, 5 μM, normalized to Scr-8), the “cell uptake ranking in GBM-6 cells” value is “highest uptake”. Also, the “accumulation in the brain parenchyma outside of regions of high perfusion” value in series [3] (healthy non-tumor bearing mice, confocal microscopy) was “accumulated within the brain parenchyma”. For the same molecule, the “level of extravasation across the BBB compared with Scr-7” value in series [3] (mean Cy5.5 intensity in parenchyma) is reported as “higher that of Scr-7”. Moreover, the “uptake in HEK-Bcan cells compared with regular HEK cells” value in series [4] was “significantly higher”. Besides, in series [5], the “fluorescence intensity in liver and kidneys” value was “highest fluorescence intensity”; the “uptake in brain and heart compared to other organs” value was “relatively low uptake”.

For “BTP-2: BΔg-targeting peptide of 8 D-amino acid residues from OBOC screen; sequence only in FIG. 3A ([dW][dR][dK][dA][dF][dT]G[dY]; not fully specified)”, in series [6], the “solubility in aqueous solutions compared to the other peptides” value is listed as “more insoluble in aqueous solutions”. Further, the “uptake in HEK-Bcan cells in the presence of the blocking peptide” value in series [7] is reported as “reduced uptake”. The “uptake in BT188 GSCs compared with BT145 GSCs” value in series [8] is listed as “greater uptake”.
